Measured values taken from patent US7304146B2, “Fluorogenic kinase assays and substrates” (Applera Corporation, priority 2004, dated 2007).
Where no end group is shown, it is not given here. [ ]: non-standard residue; d: D form. K(dye 2) = not defined here; K(tet) = not defined here; Orn = NCCC[C@H](N)C(=O)O; C12 = C12 group (lipid); C11 = C11 lipid

How the values were obtained:
protein kinase Akt3/PKBγ = protein kinase Akt3/PKBγ (Homo sapiens, UniProt Q9Y243); experiment: Fluorogenic kinase assay with Akt3/PKBγ, rate of reaction, two vs one hydrophobic moiety; format: biochemical; conditions: compared with one-hydrophobic-moiety substrate C15OOOK(dye2)RPRTSSF-NH2; substrates 8 μM, Akt3/PKBγ 6 nM, ATP 100 μM (FIG. 5)
Procedure: Tet is the fluorescein dye 2′,7′,4,7-tetachloro-5-carboxy fluorescein.
(§1) Kinase assays were performed using Corning 384-well, black, non-binding surface (NBS), microwell plates. Fluorescence was read in real time using a […] Gemini XS plate reader, with excitation and emission set at 500 and 550 respectively. The plate was read every minute for one hour at ambient temperature
Concentrations of dye-labeled peptides were determined by dilution of the purified peptides into dimethylformamide (200 μL) with 1 M NaOH (5 μL) and measuring the absorbance of either 5-carboxy-2′,7′-dipyridyl-sulfonefluorescein (i.e. dye2) at its absorbance maximum (548 nm) or 2′,7′,4,7-tetachloro-5-carboxy fluorescein (i.e. 2′,7′-dichloro-5-carboxy-4,7-dichlorofluorescein or “tet”) at its absorbance maximum (541 nm). The extinction coefficient of both dyes was assumed to be 80,000 cm^−1M^−1.

protein kinase p38βII = protein kinase p38βII (Homo sapiens, UniProt Q15759); experiment: Fluorogenic kinase assay with p38βII, rates at varying ATP fitted to Michaelis-Menton equation; format: biochemical; conditions: p38bII 14 nM; 20 mM Tris pH 7.4, MgCl2 5 mM, DTT 5 mM; read 1 hour; read-out: apparent Km of ATP
Description: A comparison of the rates of reaction for a kinase substrate comprising two hydrophobic moieties (i.e. C12OOK(dye 2)RRIPLSPOOK(C12)NH2, (peptide disclosed as SEQ ID NO: 20) used at a concentration of 2 μm and referred to herein as compound 2) versus a kinase substrate comprising a single hydrophobic moiety (i.e.C16OOK(dye 2)[…]2, (peptide disclosed as SEQ ID NO: 20) used at a concentration of 4 μm; and referred to herein as compound 4) for several concentrations of ATP (0, 5, 10, 20, 50, 100, 200, and 500 μM) is shown in FIGS. 4A and 4B. […] The rates of the reaction were fitted to the Michaelis-Menton equation. […]
as §1
Concentrations of dye-labeled peptides were determined by dilution of the purified peptides into dimethylformamide (200 μL) with 1 M NaOH (5 μL) and measuring the absorbance of either 5-carboxy-2′,7′-dipyridyl-sulfonefluorescein (i.e. dye2) at its absorbance maximum (548 nm) or 2′,7′,4,7-tetachloro-5-carboxy fluorescein (i.e. 2′,7′-dichloro-5-carboxy-4,7-dichlorofluorescein or “tet”) at its absorbance maximum (541 nm). […]

[1] = side chain (imidazole of histidine; cysteine); cited from earlier work

Sequence of protein kinase p38βII (Q15759 whole entry): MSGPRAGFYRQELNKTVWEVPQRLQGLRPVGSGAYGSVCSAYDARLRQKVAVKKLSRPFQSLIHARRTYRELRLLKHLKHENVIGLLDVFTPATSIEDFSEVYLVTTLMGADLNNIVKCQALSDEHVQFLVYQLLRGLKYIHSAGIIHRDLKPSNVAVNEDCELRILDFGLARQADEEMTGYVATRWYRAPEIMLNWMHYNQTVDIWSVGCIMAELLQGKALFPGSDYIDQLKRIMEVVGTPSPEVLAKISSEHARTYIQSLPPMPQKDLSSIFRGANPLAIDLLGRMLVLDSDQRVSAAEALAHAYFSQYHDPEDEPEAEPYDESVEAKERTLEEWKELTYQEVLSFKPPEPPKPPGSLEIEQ
Sequence of protein kinase Akt3/PKBγ (Q9Y243 whole entry): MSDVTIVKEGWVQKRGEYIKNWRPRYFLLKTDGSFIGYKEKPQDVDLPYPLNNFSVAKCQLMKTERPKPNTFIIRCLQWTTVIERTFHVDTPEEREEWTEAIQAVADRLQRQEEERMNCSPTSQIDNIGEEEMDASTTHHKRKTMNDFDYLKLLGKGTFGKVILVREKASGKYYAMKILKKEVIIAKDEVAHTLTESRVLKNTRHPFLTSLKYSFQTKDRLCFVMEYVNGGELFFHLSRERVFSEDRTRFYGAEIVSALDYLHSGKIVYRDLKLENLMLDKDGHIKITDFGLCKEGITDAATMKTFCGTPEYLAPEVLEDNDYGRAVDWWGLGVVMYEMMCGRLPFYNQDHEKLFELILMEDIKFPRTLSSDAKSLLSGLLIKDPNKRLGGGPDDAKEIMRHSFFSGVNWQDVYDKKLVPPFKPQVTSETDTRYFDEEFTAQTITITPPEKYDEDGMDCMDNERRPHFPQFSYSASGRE

Row | Km (protein kinase p38βII) [µM] | Molecule | further results
1 |  | C11OOK(tet)ArgProArgThrSerSerPheOOK(C11)NH2 ({C11-Orn-Orn-K(tet)}-RPRTSSF[Orn][Orn]-{K(C11)-NH2}; not fully specified; printed as C11OOK(tet)ArgProArgThrSerSerPheOOK(C11)NH2; reading uncertain) [compound 3, kinase substrate for Akt3/PKBγ with two C11 hydrophobic moieties and tet dye] | signal to noise ratio (protein kinase Akt3/PKBγ): improved signal to noise ratio
2 | > 200 | C16OOK(dye 2)RRIPLSPNH2 (RRIPLSP-NH2; not fully specified (N-terminus); printed as C16OOK(dye 2)RRIPLSPNH2) [compound 4, comparison kinase substrate with a single hydrophobic moiety] | 
3 | 90 | C12OOK(dye 2)ArgArgIleProLeuSerProOOK(C12)NH2 ({C12-Orn-Orn-K(dye 2)}-RRIPLSP[Orn][Orn]-{K(C12)-NH2}; not fully specified; printed as C12OOK(dye 2)ArgArgIleProLeuSerProOOK(C12)NH2; reading uncertain) [compound 2, kinase substrate for p38βII with two C12 hydrophobic moieties and Dye 2] | 
4 |  | N[C@@H](Cc1c[nH]cn1)C(=O)O [Histidine (H), Histidine] | pK [1]: about 7
